# According to patent US20260242478A1 (published 2026):
# Where no end group is shown, it is not given here.
# B1: Phage-2738 (Peptide-180 library clone) (peptide)
# peptide: WEKLCRPAWMCAAY
# modifications: cysteine pairing not given here; also: fused to pIII, displayed on bacteriophage
# B2: Phage-2718 (peptide)
# peptide: TQKWCIPAWMCAER
# modifications: cysteine pairing not given here; also: displayed on bacteriophage as fusion to pIII, linker not given here
# B3: Phage-2717 (peptide)
# peptide: EYTWCKPAWMCDGV
# modifications: cysteine pairing not given here; also: displayed on bacteriophage as fusion to pIII, linker not given here
# B4: Phage-2719 (peptide)
# peptide: DMHWCTPQWMCAPL
# modifications: cysteine pairing not given here; also: displayed on bacteriophage as fusion to pIII, linker not given here
# B5: Phage-2720 (peptide)
# peptide: DWKWCTPSWMCAQK
# modifications: cysteine pairing not given here; also: displayed on bacteriophage as fusion to pIII, linker not given here
# B6: Phage-2764 (peptide)
# peptide: ENHWCRPMWMCETI
# notes: Clone of the Peptide-180 optimisation library, tested as clonal phage supernatant (peptide fused to pIII of the bacteriophage)
# B7: Phage-2762 (peptide)
# peptide: WINWCTPQWMCADL
# modifications: cysteine pairing not given here; also: fused to pIII, displayed on bacteriophage
# notes: as for B6
# B8: Phage-2760 (peptide)
# peptide: PVKMCTPAWMCSER
# notes: as for B6
# B9: Phage-2761 (peptide)
# peptide: PWKWCTPVWMCQGV
# notes: as for B6
# B10: Phage-2759 (peptide)
# peptide: MQKMCIPTWMCDGL
# notes: as for B6
# B11: Phage-2756 (peptide)
# peptide: AHNWCTPAWMCMWD
# modifications: cysteine pairing not given here; also: fused to pIII, displayed on bacteriophage
# notes: as for B6
# B12: Phage-2758 (peptide)
# peptide: MVHWCTPSWMCSAL
# notes: Clone of the Peptide-180 optimisation library, tested as clonal phage supernatant (peptide fused to pIII of the bacteriophage); Row read against Peptide-180: MVHWCTPSWMCSAL
# B13: Phage-2757 (peptide)
# peptide: GEIRCSPAWMCDGF
# notes: as for B6
# B14: Phage-2763 (peptide)
# peptide: FEKWCTPTWMCWPY
# notes: as for B6
# Target: PSMA Fab (anti-PSMA Fab; 006 PSMA Fab)
# Assay: phage binding ELISA; clonal phage supernatant on biotinylated PSMA Fab captured on neutravidin plate; anti-M13 HRP detection
# Procedure: (§1) Clonal phage were harvested as crude supernatants and screened via standard ELISAs. […] Prior to the addition of clonal phage. wells were incubated with blocking buffer and PSMA antigen or blocking buffer alone. Without washing or aspirating, clonal phage supernatants were then added to the wells and incubated for a short time. Wells were then washed followed by detection of bound phage using a horse radish conjugated anti-M13 antibody.
row,Binder,"Phage binding ELISA signal, Anti-PSMA Fab"
1,LYNRCTPAWMCTGF [Phage-2729 (Peptide-180 library clone)],0.738
2,VNPSCTPSWMCLGL [Phage-2728 (Peptide-180 library clone)],0.739
3,IVKWCTPAWMCDQQ [Phage-2736 (Peptide-180 library clone)],0.72
4,HGKLCTPSWMCNGF [Phage-2735 (Peptide-180 library clone)],0.721
5,VSNWCKPAWMCGTT [Phage-2731 (Peptide-180 library clone)],0.733
6,WQKWCTPMWMCEAT [Phage-2727 (Peptide-180 library clone)],0.744
7,INKWCTPAWMCDLS [Phage-2726 (Peptide-180 library clone)],0.747
8,TNNWCIPSWMCDIR [Phage-2737 (Peptide-180 library clone)],0.718
9,EMKWCKPEWMCPWM [Phage-2730 (Peptide-180 library clone)],0.733
10,B1,0.715
11,MEKMCTPQWMCDMW [Phage-2725 (Peptide-180 library clone)],0.749
12,DIKWCTPSWMCPAK [Phage-2733 (Peptide-180 library clone)],0.729
13,WEKWCTPPWMCHDM [Phage-2732 (Peptide-180 library clone)],0.733
14,FENWCTPYWMCSGM [Phage-2739 (Peptide-180 library clone)],0.712
15,QMPLCIPQWMCTNN [Phage-2734 (Peptide-180 library clone)],0.723

# Target: T1, PSMA Fab (006 PSMA Fab)
# T1 construct: also called Anti-PSMA Fab; anti-PSMA Fab
# Assay: clonal phage ELISA; biotinylated PSMA Fab on neutravidin plate, wells pre-incubated with PSMA antigen (competitor), anti-M13-HRP detection
# Procedure: as §1
row,Binder,"Phage binding ELISA signal, Anti-PSMA Fab in presence of PSMA antigen"
1,EWKWCTPPWMCTTN [Phage-2724],0.0835
2,DQKWCIPLWMCETR [Phage-2722],0.0727
3,B2,0.0702
4,NVKWCVPHWMCEVS [Phage-2721],0.0649
5,DYKWCTPMWMCEVV [Phage-2723],0.0761
6,B3,0.0742
7,B4,0.0856
8,B5,0.0639

# Target: T2, 006 PSMA Fab (biotinylated (site not stated))
# T2 construct: Biotinylated PSMA Fab captured on neutravidin coated plates in the panning ELISA; also called Anti-PSMA Fab
# Assay: clonal phage ELISA on biotinylated PSMA Fab captured on neutravidin plates, anti-M13-HRP detection;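 note: crude clonal phage supernatants added to wells preincubated with PSMA antigen or with blocking buffer only (no wash between), briefly incubated, then washed before detecting bound phage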
row,Binder,phage binding ELISA signal
1,B6,0.66
2,B7,0.662
3,B8,0.67
4,B9,0.669
5,B10,0.673
6,B11,0.682
7,B12,0.677
8,B13,0.682
9,B14,0.661

# Target: T1, PSMA Fab (006 PSMA Fab)
# Assay: clonal phage ELISA; biotinylated PSMA Fab on neutravidin plate, blocking buffer alone, anti-M13-HRP detection;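 note: crude clonal phage supernatants added without washing to wells preincubated with PSMA antigen or with blocking buffer alone, briefly incubated, then washed before bound phage detection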
# Procedure: as §1
row,Binder,"Phage binding ELISA signal, Anti-PSMA Fab"
1,EWKWCTPPWMCTTN [Phage-2724],0.752
2,DQKWCIPLWMCETR [Phage-2722],0.762
3,B2,0.774
4,NVKWCVPHWMCEVS [Phage-2721],0.765
5,DYKWCTPMWMCEVV [Phage-2723],0.753
6,B3,0.774
7,B4,0.771
8,B5,0.769

# Target: T2, 006 PSMA Fab
# Assay: clonal phage ELISA on captured PSMA Fab, wells pre-incubated with PSMA antigen as competitor
# Procedure: as §1
row,Binder,phage binding ELISA signal in presence of PSMA antigen
1,B6,0.0683
2,B7,0.13
3,B8,0.0866
4,B9,0.0937
5,B10,0.0817
6,B11,0.0753
7,B12,0.1
8,B13,0.104
9,B14,0.0829

# Target: PSMA Fab (anti-PSMA Fab; 006 PSMA Fab)
# Assay: phage binding ELISA on captured PSMA Fab; wells first incubated with PSMA antigen as competitor; anti-M13 HRP detection
# Procedure: as §1
row,Binder,"Phage binding ELISA signal, Anti-PSMA Fab with PSMA antigen"
1,LYNRCTPAWMCTGF [Phage-2729 (Peptide-180 library clone)],0.0657
2,VNPSCTPSWMCLGL [Phage-2728 (Peptide-180 library clone)],0.0793
3,IVKWCTPAWMCDQQ [Phage-2736 (Peptide-180 library clone)],0.0809
4,HGKLCTPSWMCNGF [Phage-2735 (Peptide-180 library clone)],0.0619
5,VSNWCKPAWMCGTT [Phage-2731 (Peptide-180 library clone)],0.079
6,WQKWCTPMWMCEAT [Phage-2727 (Peptide-180 library clone)],0.0785
7,INKWCTPAWMCDLS [Phage-2726 (Peptide-180 library clone)],0.0937
8,TNNWCIPSWMCDIR [Phage-2737 (Peptide-180 library clone)],0.0629
9,EMKWCKPEWMCPWM [Phage-2730 (Peptide-180 library clone)],0.0688
10,B1,0.0754
11,MEKMCTPQWMCDMW [Phage-2725 (Peptide-180 library clone)],0.0732
12,DIKWCTPSWMCPAK [Phage-2733 (Peptide-180 library clone)],0.0862
13,WEKWCTPPWMCHDM [Phage-2732 (Peptide-180 library clone)],0.0669
14,FENWCTPYWMCSGM [Phage-2739 (Peptide-180 library clone)],0.0884
15,QMPLCIPQWMCTNN [Phage-2734 (Peptide-180 library clone)],0.0562
